Source: PMC7706287, “Targeting the myeloid checkpoint receptor SIRPα potentiates innate and adaptive immune responses to promote anti-tumor activity” (Journal of Hematology & Oncology, 2020)

Target: T1, Ig-V domain of human SIRPα V1 (crystallography construct) (human, UniProt P78324-1)
T1 construct: Signal regulatory protein α, human, allele v1, IgV domain as crystallised; also called IgV domain of SIRPα v1
Experiment: crystal structure; Fab-SIRPα V1 complex at 11.3 mg/mL in 10 mM Tris pH 7.4, 50 mM NaCl; sitting drop, 0.1 M sodium acetate pH 4.0, 0.2 M ammonium sulfate, 18% PEG 4000; 2.27 Angstroms
Conditions: both partners purified

T1 sequence (P78324 33-147): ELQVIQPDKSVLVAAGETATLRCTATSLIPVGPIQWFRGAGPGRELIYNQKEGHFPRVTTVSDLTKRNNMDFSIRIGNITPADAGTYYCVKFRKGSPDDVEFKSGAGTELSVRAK

binding result: binds
B1: hAB21 anti-SIRPα Fab (Fab, V domains shown)
VH: DVQLVESGGGVVRPGESLRLSCEASGFTFSSNAMSWVRQAPGKGLEWVAGISSGSDTYYGDSVKGRLTISRDNSKNILYLQMNSLTAEDTAVYYCARETWNHLFDYWGQGTLVTVSS
VL: ELTQPPSVSVSPGQTARITCSGGSYSSYYYAWYQQKPGQAPVTLIYSDDKRPSNIPERFSGSSSGTTVTLTITGVQAEDEADYYCGGYDQSSYTNPFGGGTKLTVL
notes: Fab heavy chain; Fab light chain (humanized lambda); also called hAB21 Fab; Fab version of the antibody
